Source: US20040208877A1

Experiments:
[1] = molecular target: PSGL-1 (P-Selectin Glycoprotein Ligand-1) (human) (UniProt Q14242); test: FACS, PE-labeled KPL-1 on ML2 cells
[2] = molecular target: PSGL-1 (P-Selectin Glycoprotein Ligand-1) (human) (UniProt Q14242); test: FACS competition on ML2 cells, 200 ng KPL-1, competitor IgG Y1-PE

UniProt Q14242, sequence (Q14242 42-412): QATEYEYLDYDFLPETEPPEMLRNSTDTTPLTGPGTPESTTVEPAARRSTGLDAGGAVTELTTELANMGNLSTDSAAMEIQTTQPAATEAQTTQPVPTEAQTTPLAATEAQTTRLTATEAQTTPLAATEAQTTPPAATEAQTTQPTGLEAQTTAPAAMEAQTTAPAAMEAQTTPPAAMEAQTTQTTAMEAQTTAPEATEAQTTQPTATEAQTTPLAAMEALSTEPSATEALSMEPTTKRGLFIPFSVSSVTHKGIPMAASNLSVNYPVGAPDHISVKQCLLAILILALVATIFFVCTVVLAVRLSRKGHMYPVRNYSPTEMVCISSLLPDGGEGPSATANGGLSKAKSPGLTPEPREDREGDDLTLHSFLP

For “KPL-1 (commercially available murine monoclonal antibody against PSGL1)”, the Median (Geo mean) [1] was 700 geo mean, the Median (Geo mean) of IgG Y1-PE binding [2] was 2 geo mean and the Percent Inhibition [2] was 100%.
